Columns and labels:
[1] = biological target: the molecule itself; assay: SEC-MALS; 1.6 mg injected onto Superdex 200 Increase 10/300, flow 0.35 ml/min
[2] = biological target: the molecule itself; assay: SEC; Superdex 200 10/300 in 20 mM Tris pH 8.0, 150 mM NaCl, 10 mM 2-mercaptoethanol; elution compared with MW standards
[3] = biological target: the molecule itself; assay: crystal structure; mouse lipin 2 M-Lip^xtal, 0.2 M calcium acetate, 20% PEG 3350, hanging drop, RT

B1: mouse lipin 1 M-Lip^xtal domain (residues 458–548), as used in SEC-MALS (domain or fragment, UniProt Q91ZP3-2 458-548, looked up)
chain: SLRDLPSIAISLCGGLSDHREITKDAFLEQAVSYQQFADNPAIIDDPNLVVKVGNKYYNWTTAAPLLLAMQAFQKPLPKATVESIMRDKMP
notes: mouse lipin 1, M-Lip^xtal domain, residues 458–548; numbers count on: mouse lipin 1 alpha (891 residues); The stated dimer mass of 26 kDa (13 kDa a chain) would fit the 91 residues plus a vector-encoded His tag (surmise); source: E. coli BL21 (DE3) RIPL, purified (Ni-NTA, SEC)
- stoichiometry N [1]: 2

B2: full-length mouse lipin 1 alpha (residues 1–891), from Sf9 cells (natural protein, UniProt Q91ZP3-2 1-891, looked up)
chain: MNYVGQLAGQVFVTVKELYKGLNPATLSGCIDIIVIRQPNGSLQCSPFHVRFGKMGVLRSREKVVDIEINGESVDLHMKLGDNGEAFFVQETDNDQEIIPMYLATSPILSEGAARMESQLKRNSVDRIRCLDPTTAAQGLPPSDTPSTGSLGKKRRKRRRKAQLDNLKRDDNVNSSEDEDMFPIEMSSDEDTAPMDGSRTLPNDVPPFQDDIPKENFPSISTHPQSASYPSSDREWSPSPSPSGSRPSTPKSDSELVSKSADRLTPKNNLEMLWLWGELPQAAKSSSPHKMKESSPLGSRKTPDKMNFQAIHSESSDTFSDQSPTMARGLLIHQSKAQTEMQFVNEEDLESLGAAAPPSPVAEELKAPYPNTAQSSSKTDSPSRKKDKRSRHLGADGVYLDDLTDMDPEVAALYFPKNGDPGGLPKQASDNGARSANQSPQSVGGSGIDSGVESTSDSLRDLPSIAISLCGGLSDHREITKDAFLEQAVSYQQFADNPAIIDDPNLVVKVGNKYYNWTTAAPLLLAMQAFQKPLPKATVESIMRDKMPKKGGRWWFSWRGRNATIKEESKPEQCLTGKGHNTGEQPAQLGLATRIKHESSSSDEEHAAAKPSGSSHLSLLSNVSYKKTLRLTSEQLKSLKLKNGPNDVVFSVTTQYQGTCRCEGTIYLWNWDDKVIISDIDGTITRSDTLGHILPTLGKDWTHQGIAKLYHKVSQNGYKFLYCSARAIGMADMTRGYLHWVNERGTVLPQGPLLLSPSSLFSALHREVIEKKPEKFKVQCLTDIKNLFFPNTEPFYAAFGNRPADVYSYKQVGVSLNRIFTVNPKGELVQEHAKTNISSYVRLCEVVDHVFPLLKRSHSCDFPCSDTFSNFTFWREPLPPFENQDMHSASA
notes: mouse lipin 1 alpha, full length, residues 1–891 (891 residues printed); Vector YM-Bac3, a modified pFastBac Htb; also called wild-type lipin 1; recombinant lipin 1; source: Sf9, baculovirus, purified (Ni-NTA, Streptactin-XT, SEC)
- binding result [2]: binds

B3: mouse lipin 2 M-Lip^xtal domain (residues 459–549) (domain or fragment, UniProt Q99PI5 459-549, looked up)
chain: SAMDLPDVTLSLCGGLSENGEISKEKFMEHIITYHEFAENPGLIDNPNLVIRIYNRYYNWALAAPMILSLQVFQKSLPKATVESWVKDKMP
notes: mouse lipin 2, M-Lip^xtal domain, residues 459–549; Cloned into pET28b with NdeI and NotI; the purification section names pET28a; source: E. coli BL21 (DE3) RIPL, purified (Ni-NTA, SEC)
- binding result [3]: binds

Source: paper PMC8342540, “The middle lipin domain adopts a membrane-binding dimeric protein fold” (Nature Communications, 2021)
